Data reported in patent US20060275295A1 (published 2006).

Tests used:
[1] = molecular target: T1, GFP-THAP1 fusion protein (pEGFP.C2-THAP1) (human, UniProt Q5RCE4 1-213 (Pongo abelii entry)); test: in vivo interaction assay: co-transfection in primary human endothelial cells, confocal microscopy
T1 construct: Expressed in transfected primary human endothelial cells (HUVEC); not shown: Enhanced Green Fluorescent Protein (EGFP) of pEGFP.C2 (Clontech), N-terminal
T1 sequence: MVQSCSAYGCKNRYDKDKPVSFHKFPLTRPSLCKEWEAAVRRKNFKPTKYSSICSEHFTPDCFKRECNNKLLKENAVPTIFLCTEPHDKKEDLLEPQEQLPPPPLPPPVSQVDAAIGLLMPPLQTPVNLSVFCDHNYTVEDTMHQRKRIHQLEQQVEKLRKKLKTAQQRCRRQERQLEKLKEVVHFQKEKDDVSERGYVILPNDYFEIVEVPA
Text: To provide further evidence for a physiological interaction between THAP1 and Par4 in vivo interactions between THAP1 and PAR4 were investigated. For that purpose, confocal immunofluorescence microscopy was used to analyze the subcellular localization of epitope-tagged Par4DD in primary human endothelial cells transiently cotransfected with pEF-mycPar4DD eukaryotic expression vector and GFP or GFP-THAP1 expression vectors (pEGFP.C2 and pEGFP.C2-THAP1, respectively). To generate pEF-mycPar4DD, mycPar4DD (amino acids 250-342) was amplified by PCR using pGBKT7-Par4DD as template, with primers myc.BD7 (5′-[…]-3′) (SEQ ID NO: 195) and Par4.9 (5′-[…]-3′) (SEQ ID NO: 196), and cloned into the XbaI and NotI sites of the pEF-BOS expression vector (Mizushima and Nagata, Nucleic Acids Research, 18:5322, 1990). Primary human endothelial cells from umbilical vein (HUVEC, PromoCell, Heidelberg, Germany) were grown in complete ECGM medium (PromoCell, Heidelberg, Germany), plated on coverslips and transiently transfected in RPMI medium using GeneJammer transfection reagent according to manufacturer instructions (Stratagene, La Jolla, Calif., USA). […] Cells were then washed three times 5 min at room temperature in PBS-BSA, and incubated for 1 hr with Cy3 (red fluorescence)-conjugated goat anti-mouse (1/1000, Amersham Pharmacia Biotech) secondary antibodies, diluted in PBS-BSA. […]

[2] = molecular target: T2, human THAP1 (THanatos-Associated Protein-1), full length (human, UniProt Q9NVV9 1-213); test: yeast two-hybrid with THAP1 bait and GST pull-down with GST-THAP1
T2 construct: Used as Gal4-BD (pGBKT7) or Gal4-AD (pGADT7, pGAD424) fusion in yeast two-hybrid and as 35S-labelled in vitro translated protein (template pGBKT7-THAP1); also called hTHAP1; THAP1 wild type
T2 sequence: T1 sequence

[3] = molecular target: T2, human THAP1 (THanatos-Associated …); test: yeast two-hybrid, AH109, His/Ade selection
Text: 285) and CXCL10-2 (5′-[…]-3′) (SEQ ID NO. 286), No. 2403734 (IFNγ) with primers IFN-1 (5′-[…]-3′) (SEQ ID NO: 287) and IFN-2 (5′-[…]-3′) (SEQ ID NO: 288). The PCR products were digested with EcoRI and BamHI, and cloned between EcoRI and BamHI cloning sites of vector pGBKT7 (Clontech).

B1: myc-Par4DD (epitope-tagged Par4DD, amino acids 250-342, pEF-mycPar4DD) (other, not shown: small tags and cut ends)
chain: GFPRYNRDANVSGTLVSSSTLEKKIEDLEKEVVTERQENLRLVRLMQDKEEMIGKLKEEIDLLNRDLDDIEDENEQLKQENKTLLKVVGQLTR
notes: Expressed in transfected primary human endothelial cells (HUVEC)
binding result [1]: binds

B2: SLC/CCL21ΔCOOH (SLC/CCL21 deletion mutant lacking the basic carboxy-terminal extension, amino acids 102-134) (ligand)
chain: SDGGAQDCCLKYSQRKIPAKVVRSYRKQEPSLGCSIPAILFLPRKRSQAELCADPKELWVQQLMQHLDKTPSPQKPAQG
notes: The BamHI-PstI fragment is said to encode SLC amino acids 24-102
binding result [2]: binds

B3: human chemokine CXCL9, mature form (amino acids 23-125) (ligand)
chain: TPVVRKGRCSCISTNQGTIHLQSLKDLKQFAPSPSCEKIEIIATLKNGVQTCLNPDSADVKELIKKWEKQVSQKKKQKNGKKHQKKKVLKVRKSQRSRQKKTT
notes: Gal4 fusion in yeast or in vitro translated (pGBKT7 or pGADT7 template); tags not built in; also called MIG/CXCL9; MIG
binding result [3]: binds
